The values that follow come from the RNAGym collection of RNA variant scans (doi:10.1073/pnas.2313332121).

Sequences and labels used below:
B1: TPR t1 (parent)
chain: GACCAAUCUGCCCUCAGAGCUCGAGAACAUCUUCGGAUGCAGAGGAGGCAGGCUUCGGUGGCGCGAUAGCGCCAACGUCCUCAACCUCCAAUGCAUCCCACCACAUGAUGAUGCCUGAAGAGCCUUGGUUUUUUG

This data set covers variants of B1. The data set is described as follows: polymerase ribozyme fitness, log enrichment relative to wild type (log ratio); higher = more active; in vitro selection for triplet polymerase activity. The method, boiled down:
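Fitness measures genotype enrichment against wild-type enrichment on a logarithmic scale, with inverse-variance-weighted averaging of replicates. The logarithm is base 2, and genotypes were kept only with ≥10 input reads and ≥1 read per output in Illumina sequencing. The sequenced libraries came from one triplicate in vitro selection round, including frozen incubation at −7 °C, of PCR-built, transcribed mutant libraries of each subunit of a heterodimeric triplet polymerase ribozyme.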
In the case of GACCUAUCUGCCCUCAGAGCUCGAGAACAUCUUCGGAUGCAGAGGAGGAAGGCUUCGGUGGCGCGAUAGCGCCAACGUCCUCAACCUCCAAUGCAUCCCACCACAUGAUGAUGCCUGAAGAGCCUUGGUUUUUUG, the “polymerase ribozyme fitness (log ratio)” value was -2.06.
With GACCUAUCUACCCUCAGAGCUCGAGAACAUCUUCGCAUGCAGAGGAGGCAGGCUUCGGUCGCGCGAUAGCGCCAACGCCCUCAACCUCCAAUGCAUCCCACCACAUGAUGAUGCCUGAAGAGCUUUGGUUUUUUG, the “polymerase ribozyme fitness (log ratio)” value is -2.58.
For the variant GACCUAUCUGCCCUCAGAGCUCGAGAACAUCUUCGGAUGCAGACGAGGCAGGCUUCGGUGGCGCGAUAGCGCUAACGUCCUCAACCUCCAAUGCAUCCCACCACAUGAUGAUGCCUGAAGAGCCUUGGUUUUUUG, the “polymerase ribozyme fitness (log ratio)” value is -1.65.
Under GACCUAUCUGCCCUCAGAGCUCGAGAACAUCUUCGGAUGCAGAGGAGGCAGGCUUCGGUGGCGUGAUAGCGCCAACGUUCUCAACCUCCAAUGCAUCCCACCACAUGAUAGUGCCUGAAGAGCCUUGGUCUUUUG stands -0.201.
For the variant GACCUAUCUGCCCUCAGAGCUCGAGAACAUCUUCGGAUGCAGAGGAGGCAGGCUUCGGUGUCGCGAUAGCGCCAACGUCCUCAACCUCCAAUGCAUCCCACCACAUGAUGAUGCCUGAAGAGCAUUGGUUUUUUG, the “polymerase ribozyme fitness (log ratio)” value worked out at 1.19.
The figure for GACCUAUCUGCCCUCAGAGCUCGAGAACAUCUUCGGAUGCAGAGGAGGCAGGCUUCGGUUGCGCGAUAGCGCCAACGUCCUCAACCUCCAAUGCAUCCCACCACAUGAUGAUGCCUGAAGAGCCUUGGUUUUUUG is -0.228; for GACCUAUCUGCCCUGAGAGCUCGAGAACAUCUUCGGAUGCAGAGGAGGCAGGCUUCGGUGGCGCGAUAGCGGCAACGUCCUCAACCUCCAAUGCAUCCCACCACAUGAUGAUGCCUGAGGUGCCUUGGUUUUUUG it is 0.915; for GACCUAUCUGCCCUCAGAGCUCGAGAACAUCUUCGGAUGCAGAGGAGGCAGGCUUCGGUGGCGCGAUAGCGACAACGUCCUCAACCUCCAAUGCAUCCCACCACAUGAUGAUGCCUGAAGAGCCUUGGUUUUUUG it is -0.164.
As to GACCUAUCUGCCCUCAGAGCUCGAGAACAUCUUCGGAUGCAGAGGAAGCAGGCUUCGGUGGCGCGAUAGCGCCAACGUCCUCAACCUCCAAUGCAUCCCACCACAUGAUGAUGCCUGAAGAGCCUUGGUUUUUUG, the “polymerase ribozyme fitness (log ratio)” value was -1.21.
As for GACCUAUCUACCCUCAGAGCUCGAGAACAUCUUCGGAUGCAGAGGAGGCAGGCUUCGGUGGCGCGAUAGCGCCAACGUCCUCAACUUCCAAUGCAUCCCACUACAUGAUGAUACCUGAAGAGCCUUGCUUUUUUG, the “polymerase ribozyme fitness (log ratio)” value is -5.52.
Take GACCUAUCUGCCCUCAGAGCUCGAGAACAUCUUCGGAUGCAGAGGAGGCAGGCUUCGGUGGCGCGAUAGCGCCAACGUCCUCAACCUCCAAUGCAUCCCACCACAUGAUGAUGACUGAAGAGCCUUGGUUUUUUG: the “polymerase ribozyme fitness (log ratio)” value is -1.69.
Regarding GACCUAUCUGCCCUCAGAGCUCGAGAACAUCUUCGGAUGCAGAGGAGGCAGGCUUCGGUGGCGCGAUAGCGCAAACGUCCUCAACCUCCAAUGCAUCCCACCACAUGAUGAUGCCUGAAGAACCUGGGUUUUUUG, the “polymerase ribozyme fitness (log ratio)” value was -2.29.
On to GACCUAUCUGCCCUCAGAGCUCGAGAACAUCUUCGGAUGUAGAGGAGACAGGCUUCGGUGGCGCGAUAGCGCCAACGUCCUCAACCUCCAAUGCAUCCCACCACAUGAUGAUGCCUGAAGAGCCUUGGUUUUUUG, for which the “polymerase ribozyme fitness (log ratio)” value was -2.13.
Regarding GACCUAUCUGCCCUCAGAGCUCGAGAACAUCUUCGGAUGCAGAGGAGGCAGGCUUCGGUGACGCGAUAGCGCCAACGUCCUCAACCUCCAAUGCAUCCCACCACAUGAUGAUGCCUGAAGAGCCUUGGUUUUUUG, the “polymerase ribozyme fitness (log ratio)” value was -0.0027.
The figure for GACCUAUCUGCCCUCAGAGCUCGAGAACAUCUUCGGAUGCAGAGGAGGCAGGCUUCGGUGGCGCGAUAGAGCCAACGUCCUCAACCUCCAAUGCAUCCCACCACAUGAUGAUGCCUGAAGAGCCUUGGUUUUUUG is -2.56; for GACCUAUCUGCCCUCAGAGCUCGAGAACAUCUUCGGAUGCAGAGGAGGCAGGCUUCGGUGGCGCGAUAGGGCCAACGUCCUCAACCUCCAAUGCAUCCCACCACAUGAUGAUGCCUGAAGAGCCUUGGUUUUUUG it is -2.83.
Take GACCUAUCUGCCCUCAGAGCUCGAGAACAUCUUCGGAUGCAGAGGAGGCAGGCUUCGGUGCCGCGAUAGCGCCAACGUCCUCAACCUACAAUGCAUCCCACCACAUGAUGAUGCCUGAAGAGCCUUGGUUUUUUG: the “polymerase ribozyme fitness (log ratio)” value was -2.27.
Turning to GACCUAUCUGCCCUCAGAGCUCGAGAACAUCUUCGGAUGCAGACGAGGCAGGCUUCGGUUGCGCGAUAGCGCCAACGUCCUCAACCUCCAAUGCAGCCCACCACAUGAUGAUGCCUGAAGAGCCUUAGUUGUUUG, the “polymerase ribozyme fitness (log ratio)” value is -3.9.
Turning to GACCUAUCUUCCCUCAGAGCUCGAGAACAUCUUCGGAUGCAGAGCAGGCAAGCUUCGGUGGCGCGAUAGCGCCAACGUCCUCAACCUCCAAUGCAUCCCACCACAUGAUGAUGCCUGUAAAGCCUUGGUUUUUUG, the “polymerase ribozyme fitness (log ratio)” value is -2.81.
With GACCUAUCUGCCCUCAGAGCUCGAGAACAUCUUCGGAUGCAGAGGAGGCAGGCUUGGGUGGCGCGAUAGCGCCAACGUCCUCAACCUCCAAUGCAUCCCACCACAUGAUGAUGUCUGAAGAGCCUUGGUUUUUUG, the “polymerase ribozyme fitness (log ratio)” value is -4.21.
Take GACCUAUCUGCCCUCAGAGCUCGAGAACAUCUUCGGAUGCAGAGGAGGCAGGCUUCGGUGGAGCGAUAGCGCCAACGUCCUCAACCUCCAAUGCAUCCCACCACAUGAUGAUGCCUGAAGAGCCUUGGUUUUUUG: the “polymerase ribozyme fitness (log ratio)” value is -0.777.
For the variant GACCUAUCUGCCCUCAGAGCUCGAGAACAUCUUCGGAUGCAGAGGAGGCAGCCUUCGGUGGCGCGAUAGCGCAAACGUCCUCAACCUCCAAUGCAUCCCAUCACAAGACGAUGCCUGAAGAGCCUUGGUUUUUUU, the “polymerase ribozyme fitness (log ratio)” value is -5.42.
Turning to GACCUAUCUGCCCUCAGAGCUCGAGAACAUCUUCGGAUGCAGAGGAGGCAGGUUUCGGUGGCGCGAUAGCGCCAACGUCCUCAACCUCCAAUGCAUCCCACCACAUGAUGAUGCCUGAAGAGCCUUGGUUUUUUG, the “polymerase ribozyme fitness (log ratio)” value was -0.883.
As to GACCUAUCUGCCCUCAGAGCUCGAGAACAUCUUCGGAUGCAGAGGAGGCAGUCAUCGGUGGCGCGAUAGCGCCAACGUCCUCAACCUCCAAUGCAUCCCACCACAUGAUGAUGCCUGAAGAGCCUUGGUUUUUUG, the “polymerase ribozyme fitness (log ratio)” value was -1.51.
As for GACCUAUCUGCCCUCAGAGCUCGAGAACAUCUUCGGAUGCAGAGGAUGCAGGCUUCGGUGGCGCGAUAGCGCCAACGUCCUCAACCUCCAAUGCAUCCCACCACAUGAUGAUGCCUGAAGUGCUUUGGUUUUUUG, the “polymerase ribozyme fitness (log ratio)” value amounted to 0.495.
On to GACCUAUCUGCCCUCAGAGCUCGAGAACAUCUUCGGAUGCAGAGGAGGCAGGUUUCGGUGGCGUGAUAGCGCCAACGUCCUCAACCUCCAAUGCAUCCCACCACAAGAUGAUGCCUGAAGAGCCUUGGUUUUUUG, for which the “polymerase ribozyme fitness (log ratio)” value was -0.639.
GACCUAUCUGCCCUCAGAGCUCGAGAACAUCUUCGGAUGCAGAGGAAGCAGGCUUCGGUGGCGCGAUAGCGCCAACGUCCUCAACCUCCAAUGCAUCCCACCACAUGAUGAUUCCUGAAGAGCCUUGGUUUUUUG: the “polymerase ribozyme fitness (log ratio)” value is -3.72.
On to GACCUAUCUGCCCUCAGAGCUCGAGAACAUCUUCGUAUGCAGAGGAGGCAGGCUUCGGUGGCGCGAUAGCGCCAACGUCCUCAACCUCCAAUGCAUCCCACCACAUGAUGAUGCCUGAAGAGCCUUGGUUUUUUG, for which the “polymerase ribozyme fitness (log ratio)” value was -1.3.
As to GACCUAUCUGCCCUCAGAGCUCGAGAAGAUCUUCGGAUGCAGAGGAGGCAGGCUUCGGUGGCGCGAUAGCGCCAACGUCCUCAACCUCCAAUGCAACCCACCACAUGAUGAUGUCUGAAGAGCCUUGGUUUUUUG, the “polymerase ribozyme fitness (log ratio)” value is -5.96.
In the case of GACCUAUCUGCCCUCAGAGCUCGAGAACAUCUUCGGAUGCAGAGGAGGCAGGCUUCGGUGGCCCGAUAGCGCCAACGUCCUCAACCUCCAAUGCAUCCCACCACAUGAUGAUGCCUGAAGAGCCUUGGUUUUUUG, the “polymerase ribozyme fitness (log ratio)” value was -0.837.
Under GACCUAUCUGCCCUCAGAGCUCGAGAACAUCUUCGGAUCCAGAGGAGGCAGGCUUCGGUGGCGCGAUAGCGCCAACGUCCUCAACCUCCAAUGCAUCCCACCACUUGAUGAUGCCUGAAGAGCCUUGGUUUUUUG stands -3.56.
Consider GACCUAUCUGCCCUCAGAGCUCGAGAACAUCUUGGGAUGCAGAGGAGGCAGGCUUCGGUGGCGCGAUAGCGCCAACGUCCUCAACCUCCAAUGCAUCCCACCACAUGAUGAUGCCUGAAGAGCCUUGGUUUUUUG, for which the “polymerase ribozyme fitness (log ratio)” value is -6.92.
For the variant GACCUAUCUGCCCUCAGAGCUCGAGAACAUCUUCGGAUGCAGAGGAGGCAGGUUUCGGUGGCGCGAUAGCGCCAACGUCCUCAACCUCCAAAGCAUCCCACCACAUGAUGAUUCCUGAAGAGCCUUGGUUUUUUG, the “polymerase ribozyme fitness (log ratio)” value is -4.65.
In the case of GACCUAUCUGCCCUCAGAGCUCGAGAACAUCUUCGGAUGCAGAGGAGGCAGGCUUCGGUGGCGCGAUAGCGCCAACGUCCUCAACCUCCAAUGUAUCCCACCACAUGAUGAUGCCUGAAGAGCCUUGGUUUUUUG, the “polymerase ribozyme fitness (log ratio)” value was -1.16.
The figure for GACCUAUCUGCCCUCAGAGCUCGAGAACAUCUUCGGAUGCAGAGGAGGCAGGCUUCGGUGGCGUGAUAGCGCCAACGUCCUCAACCUCCAAUGCAUCCCACCACAUGAUGAUGCCUGAAGAGCCUUGGUUUUUUG is -0.49; for GACCUAUCUGCCCUCAGAGCUCGAGAACAUUUUCGGAUGCAGAGGAGGCAGGCUUCGGUGGCGCGAUAGCGCCAACGUCCUCAACCUCCAAUGCAUCCCACCACAUGAUGAAGCCUGAAGAGCCUUGGUUUUUUG it is -3.97.
Take GACCUAUCUGCCCUCAGAGCUCGAGAACAUCUUCGGAUGCAGAGGAGGCAGGCUUCGGUGGCGCGAUAGCGCCAACGUCCUCAACAUCCAAUGCAUCCCACCACAUGAUGAUGCCUGAAGAGCCUUGGUUUUUUG: the “polymerase ribozyme fitness (log ratio)” value is -0.495.
On to GACCUAUCUGCCCUCAGAGCUCGAGAACAUCUUCGGAUGCAGAGGAAGCAGGCUUCGGUGGCGCGAUAGCGCCAACGUCCUCAACCUCCAAUGCAUCCCACCACAUGAUGAUGCCUGAAGAGCUUAGGUUUUUUG, for which the “polymerase ribozyme fitness (log ratio)” value came to 0.649.
For the variant GACCUAUCUGCCCUCAGAGCUCGAGAACAUCUUCGGAUUCAGAGGAGGCAGGCUUCGGUGGCGCGAUAGCGCCAACGUCCUCAACCUCCAAUGCAUCCCACCACAUGAUGAUGCCUGAAGAGCCUUGGUUUUUUG, the “polymerase ribozyme fitness (log ratio)” value is -1.13.
For the variant GACCUAUCUGCCCUCAGAGCUCGAGAACAUCUUCGGAUGCAGAAGAGGCAGGCUUCGGUGGCGCGAUAGCGCCUACGUCCUGAACCGCCAAUGCAUCCCACCACAUGAUGAUGCCUGAAGAGCCUUGGUUUUUUG, the “polymerase ribozyme fitness (log ratio)” value is -4.13.
Regarding GACCUAUCUGCCCUCAGAGCUCGAGAACAUCUUCGGAUGCAGAGGAGGCAGGCUUCGGUCGCGCGAUAGCGCCAACGUCCUCAACCUCCAAUGCAUCCCACCACAUGAUGAUGCCUGAAGAGCUUUGGUUUUUUG, the “polymerase ribozyme fitness (log ratio)” value was -0.742.
As for GACCUAUCUACCCUCAGAGCUCGAGAACAUCUUCGGUUGCAGAGGAGGCAGGCUGCGGUGGCGCGAUAGCGCCAACGUCCUCAACCUCCAAUGCAUCCCACCACAUGAUGAUGCCUGAAGAGCCUUGGUUUUUUG, the “polymerase ribozyme fitness (log ratio)” value was -0.809.
